Laboratory results as given in US7786356B2, “Method for the production of calendic acid, a fatty acid containing delta 8,10,12 conjugated double bonds and related fatty acids having a modification at the delta 9 position” (E.I. du Pont de Nemours and Company, priority 1999, dated 2010).

Key:
[1] = test system: pigs (barrows); assay: Belly (fat) compression test in pigs fed conjugated fatty acids; type: in vivo, pig
Description: Experiments were conducted to evaluate the effects of feeding eleostearic (18:3) conjugated fatty acids on pig growth, carcass characteristics, and fat firmness. Twenty-four pigs (barrows, castrated males, from PIC genetics) with a capacity for high rates of daily lean growth and reduced back fat were randomly assigned by litter mates, weight, and block to three dietary treatments. Group one was fed normal corn feed, group two received normal corn feed supplemented with CLA, and the third group received normal corn feed supplemented with conjugated linolenic acids, i.e., ClnAs (18:3 conjugated fatty acids). Pigs were penned individually and identified by ear tattoo. […]
Live weights were recorded to determine average daily gains Phase 1 (150 to 200 lbs), and Phase 2 (200 to 250 lbs). […]
When pigs reached 250 pounds body weight they were slaughtered, processed and standard carcass measurements were collected. […] Bellies from the eight pigs in each study group were evaluated for fat firmness evaluated by measuring belly thickness before and after compression. […] Fat compression was quantified by subtracting the compressed belly thickness from the initial belly thickness. Belly thickness was measured using a micrometer. Data were analyzed as a randomized complete block design using the GLM (General Linear Model) procedure of SAS (Statistical Analysis Systems). […]

[2] = test system: somatic soybean embryos; assay: Production of calendic acid in somatic soybean embryos expressing CalFad2-1 or CalFad2-2; type: cell-based; settings: single somatic embryos
Source text: The open-reading frames of these cDNAs were amplified by PCR in order generate the appropriate flanking restriction enzyme sites for cloning into the soybean expression vector. The oligonucleotide primers used for amplification of the CalFad2-1 open-reading frame were: 5′-ttgcggccgc[…]-3′ (sense, SEQ ID NO:18) and 5′-ttgcggccg[…]-3′ (antisense, SEQ ID NO:19). The oligonucleotide primers used for amplification of the CalFad2-2 coding sequence were: 5′-agcggccgcTATACCATGGGCAAG-3′ (sense, SEQ ID NO:20) and 5′-tgcggccgcTATGTTAAACTTC-3′ (antisense, SEQ ID NO:21). [Note: The sequences shown in lower case contain an added NotI site along with additional bases to facilitate restriction enzyme digestion.] The template was the cDNA corresponding to either EST ecs1c.pk009.n14 (CalFad2-1) or EST ecs1c.pk08.a24 (CalFad2-2), and Pfu polymerase (Stratagene) was used for the amplification reactions. The resulting PCR products were subcloned into the intermediate vector pCR-Script AMP SK(+) (Stratagene) according to the manufacturer's protocol. The amplified CalFad2-1 and CalFad2-2 coding sequences were then released with NotI digestion and then subcloned into the corresponding site of the soybean expression vector pKS67.
The PCR amplified coding sequences of CalFad2-1 and CalFa2-2 were fused with the β-conglycinin promoter and phaseolin termination sequences in vector pKS67 was transformed into somatic soybean embryos as follows. To induce somatic embryos, cotyledons, 3-5 mm in length dissected from surface sterilized, immature seeds of a soybean cultivar A2872 or JACK-910 were cultured in the light or dark at 26° C. on an appropriate agar medium for 6-10 weeks. Somatic embryos that produce secondary embryos were then excised and placed into a suitable liquid medium. After repeated selection for clusters of somatic embryos that multiplied as early, globular staged embryos, the suspensions were maintained as described below.
Soybean embryogenic suspension cultures were maintained in 35 mL liquid media on a rotary shaker, 150 rpm, at 26° C. with florescent lights on a 16:8 hour day/night schedule. Cultures were subcultured every two weeks by inoculating approximately 35 mg of tissue into 35 mL of liquid medium.
Soybean embryogenic suspension cultures were then transformed with the vector pKS67 containing the coding sequence for CalFad2-1 and CalFad2-2 by the method of particle gun bombardment (Klein et al. (1987) Nature (London) 327:70, U.S. Pat. No. 4,945,050). A Du Pont Biolisticä PDS1000/HE instrument (helium retrofit) was used for these transformations.
To […] of a 60 mg/mL […] gold particle suspension were added (in order): 5 mL DNA (1 mg/mL), 20 ml spermidine (0.1 M), and […] CaCl2 (2.5 M). The particle preparation was then agitated for three minutes, spun in a microfuge for 10 seconds and the supernatant removed. The DNA-coated particles were then washed once in 400 mL 70% ethanol and resuspended in 40 mL of anhydrous ethanol. The DNA/particle suspension was sonicated three times for one second each. Five mL of the DNA-coated gold particles was then loaded on each macro carrier disk.
Approximately 300-400 mg of a two-week-old suspension culture was placed in an empty 60×15-mm petri dish and the residual liquid removed from the tissue with a pipette. For each transformation experiment, approximately 5 to 10 plates of tissue were bombarded. Membrane rupture pressure was set at 1100 psi and the chamber was evacuated to a vacuum of 28 inches mercury. The tissue was placed approximately 3.5 inches away from the retaining screen and bombarded three times. Following bombardment, the tissue was divided in half and placed back into liquid and cultured as described above.
Five to seven days post bombardment, the liquid media was exchanged with fresh media, and eleven to twelve days post bombardment with fresh media containing […] hygromycin. This selective media was refreshed weekly. […]

[3] = test system: Saccharomyces cerevisiae INVSc1 cells; assay: Expression of CalFad2-1 and CalFad2-2 in Saccharomyces cerevisiae; type: cell-based; settings: cells grown in media containing 2 mM linoleic acid, 4 days at 16° C.; (w/w) of total fatty acids
Source text: The Calendula officinalis clones CalFad2-1 and CalFad2-2 were digested with the restriction enzymes EcoRI and XhoI. The resulting DNA fragments containing the entire cDNA inserts were purified by agarose gel electrophoresis. The purified cDNAs were ligated into the EcoRI and XhoI sites of the Saccharomyces cerevisiae expression vector pYES2 (Invitrogen) using T4 DNA ligase (New England Biolabs). The resulting plasmids pYes2/CalFad2-1 and pYes2/CalFad2-2 were introduced into Saccharomyces cerevisiae INVSc1 (Invitrogen Corp.) cells by lithium acetate-mediated transformation [Sherman F, Fink G R, Hicks J B, Methods in Yeast Genetics: A Laboratory Course Manual, Cold Spring Harbor Lab. Press, Plainview, N.Y. (1987)]. Transformed cells were selected for their ability to grow in the absence of uracil. […] In cells grown in media containing linoleic acid, calendic acid (18:3Δ^8trans,10trans,12cis) was detected in amounts of up to 2.9% (w/w) of the total fatty acids of cultures expressing CalFad2-1 (FIG. 3) and in amounts of up to 0.2% of the total fatty acids of cultures expressing CalFad2-2. […] No calendic acid was detected in cultures harboring the expression vector without a cDNA insert or in cells grown in the absence of exogenous linoleic acid. […]

[4] = n = 5, ± standard deviation, weight % of total fatty acids

| Molecule | fat firmness in pigs (in words) ([1]; addition to NC diets, versus NC diet) | Pork Belly Compression ([1]; initial minus compressed belly thickness, 50 lb weight for one hour, 0.50% conjugated fatty acid in diet, smaller number = greater firmness, 8 pigs per group) | Other, Fatty Acid Weight % ([2]; n = 5, weight % of total fatty acids) | 16:0, Fatty Acid Weight % [2, 4] | 18:0, Fatty Acid Weight % [2, 4] | 18:1, Fatty Acid Weight % [2, 4] | 18:2, Fatty Acid Weight % [2, 4] | 18:3, Fatty Acid Weight % [2, 4] | Calendic Acid, Fatty Acid Weight % [2, 4] | calendic acid (18:3Δ8trans,10trans,12cis), amount of the total fatty acids [3] |
| --- | --- | --- | --- | --- | --- | --- | --- | --- | --- | --- |
| Conjugated linoleic acid [NC + CLA] | greater fat firmness | 28.0 mm |  |  |  |  |  |  |  |  |
| CalFad2-2: Calendula officinalis fatty acid modifying enzyme (cDNA SEQ ID NO:3, protein SEQ ID NO:4) forming conjugated double bonds at delta-9 position (protein, listed as Calendula officinalis) MGKAASAKKVLERVPISKPPFEYNDLKKAVPPHCFSRPLSRSLYFLFHDIIVTCILFYVASNYIHMLPRFLSCIVWPVYWISQGVFLGRLWMIGHECGHHSFSNYRWVDDTVGFLIHTATLTPYFSFKYSHRNHHAHTNSMEYDEVHIPKRKSEALYFEFLGNNPIGLMITMLCKLTFGYAAYIMFNYTGKKHKSGGLASHFYPQSPLFNDSERNHVLFSDIGICIVLYACYRIVTVTGAMPAFYVYGIPWVIMSAILFAATYLQHTHPSIPHYDTTEWNWLRGALSTIDRDLGFFNMNKTHYHVIHHLFPVIPEYHAQEATEAIKPILGQYYKYDGTPFLKALWREMKECIYVESDEGQKKQGIYWFKNKT |  |  | ≦1.7 Weight % | 12.3 ± 1.1 Weight % | 3.3 ± 0.5 Weight % | 8.6 ± 2.1 Weight % | 38.2 ± 3.4 Weight % | 17.7 ± 3.5 Weight % | 18.1 ± 3.6 Weight % | up to 0.2% |
